Data on one substance can be found in paper PMC9900802.

This assay addresses LUC^N-MLO2^CT-LW/RR (A. thaliana). As to the kind of experiment: split reporter.

Take “LUC^C-CAM2 (pAMPAT-LUC^C) (from UniProt P0DH97 1-149) (natural protein)”: the luciferase activity (median) worked out at 4900 units/mm^2.
